This series deals with Escherichia coli TOP10. The experiment in a line: shrunken log2 fold change of peptide-encoding DNA abundance (4.5 h post-induction vs induction); higher = less antimicrobial activity (less host growth inhibition). As to conditions: time post-induction: 4.5 h; library: site-saturation at positions 5, 18, 19, 20.
Turning to RRIRKRPPRLPRPRPRPTAGPRP, the “shrunken log2 fold change” value worked out at 0.581.
For the sequence RRIRMRPPRLPRPRPRPTEMPRP, the “shrunken log2 fold change” value was found to be 0.14.
On to RRIRGRPPRLPRPRPRPEWWPRP, for which the “shrunken log2 fold change” value turned out to be 0.77.
For the sequence RRIRKRPPRLPRPRPRPTMVPRP, the “shrunken log2 fold change” value is 0.27.
As to RRIRTRPPRLPRPRPRPCLGPRP, the “shrunken log2 fold change” value is -0.534.
Under RRIRSRPPRLPRPRPRPRHPPRP stands 0.215; under RRIRTRPPRLPRPRPRPYAIPRP, -0.000694; under RRIRSRPPRLPRPRPRPFCIPRP, -0.316.
On to RRIRMRPPRLPRPRPRPEKLPRP, for which the “shrunken log2 fold change” value was 0.462.
Regarding RRIRSRPPRLPRPRPRPPIKPRP, the “shrunken log2 fold change” value is -0.221.
Take RRIRARPPRLPRPRPRPREGPRP: the “shrunken log2 fold change” value was found to be 1.1.
As for RRIRMRPPRLPRPRPRPDREPRP, the “shrunken log2 fold change” value is -0.00516.
In the case of RRIRPRPPRLPRPRPRPIFKPRP, the “shrunken log2 fold change” value is -0.0374.
Regarding RRIRTRPPRLPRPRPRPEWMPRP, the “shrunken log2 fold change” value was -0.048.
RRIRLRPPRLPRPRPRPVCWPRP: the “shrunken log2 fold change” value was 0.462.
Regarding RRIRWRPPRLPRPRPRPLFSPRP, the “shrunken log2 fold change” value was determined as 0.0976.
In the case of RRIRRRPPRLPRPRPRPLVVPRP, the “shrunken log2 fold change” value was found to be 0.312.
In the case of RRIRERPPRLPRPRPRPDVSPRP, the “shrunken log2 fold change” value was determined as 0.0276.
The value for RRIRERPPRLPRPRPRPALQPRP was 0.22; that for RRIRNRPPRLPRPRPRPIDPPRP was -0.127; that for RRIRGRPPRLPRPRPRPQTIPRP was 0.28.
Take RRIRLRPPRLPRPRPRPVQPPRP: the “shrunken log2 fold change” value came to 0.653.
The value for RRIRYRPPRLPRPRPRPHSHPRP was -0.311.
Under RRIRKRPPRLPRPRPRPNCMPRP stands -0.0663; under RRIRKRPPRLPRPRPRPLQPPRP, 0.349.
The value for RRIRQRPPRLPRPRPRPPYCPRP was 0.0161; that for RRIRGRPPRLPRPRPRPFVDPRP was 0.571; that for RRIRGRPPRLPRPRPRPDVAPRP was 1.98.
As for RRIRHRPPRLPRPRPRPKSHPRP, the “shrunken log2 fold change” value turned out to be 0.77.
With RRIRYRPPRLPRPRPRPYNCPRP, the “shrunken log2 fold change” value is -0.0167.
For RRIRVRPPRLPRPRPRPWWIPRP, the “shrunken log2 fold change” value was -0.202.
With RRIRYRPPRLPRPRPRPLARPRP, the “shrunken log2 fold change” value is -0.265.
On to RRIRPRPPRLPRPRPRPDCNPRP, for which the “shrunken log2 fold change” value was -0.319.
Turning to RRIRYRPPRLPRPRPRPVVEPRP, the “shrunken log2 fold change” value is -0.34.
With RRIRTRPPRLPRPRPRPADAPRP, the “shrunken log2 fold change” value was -0.0445.
In the case of RRIRDRPPRLPRPRPRPINQPRP, the “shrunken log2 fold change” value was -0.389.
Turning to RRIRTRPPRLPRPRPRPAICPRP, the “shrunken log2 fold change” value is -0.552.
On to RRIRMRPPRLPRPRPRPWCEPRP, for which the “shrunken log2 fold change” value is -0.0233.
On to RRIRTRPPRLPRPRPRPMMEPRP, for which the “shrunken log2 fold change” value is -0.202.
Under RRIRKRPPRLPRPRPRPATDPRP stands 0.00132; under RRIRTRPPRLPRPRPRPCTRPRP, -0.287.
As for RRIRPRPPRLPRPRPRPQVGPRP, the “shrunken log2 fold change” value stood at 0.0207.
The value for RRIRLRPPRLPRPRPRPNPLPRP was 0.256; that for RRIRMRPPRLPRPRPRPPVKPRP was 0.512.
As to RRIRPRPPRLPRPRPRPETLPRP, the “shrunken log2 fold change” value was -0.0144.
As for RRIRYRPPRLPRPRPRPDSHPRP, the “shrunken log2 fold change” value is -0.782.
As to RRIRPRPPRLPRPRPRPSGQPRP, the “shrunken log2 fold change” value is -0.0898.
As for RRIRTRPPRLPRPRPRPENVPRP, the “shrunken log2 fold change” value is -0.0181.
On to RRIRGRPPRLPRPRPRPSHFPRP, for which the “shrunken log2 fold change” value is -0.621.
In the case of RRIRYRPPRLPRPRPRPRPWPRP, the “shrunken log2 fold change” value is 0.332.
With RRIRGRPPRLPRPRPRPKRYPRP, the “shrunken log2 fold change” value worked out at 0.253.
As to RRIRYRPPRLPRPRPRPKCIPRP, the “shrunken log2 fold change” value was -0.154.
For the sequence RRIRARPPRLPRPRPRPHQPPRP, the “shrunken log2 fold change” value was -0.115.
Turning to RRIRRRPPRLPRPRPRPSIHPRP, the “shrunken log2 fold change” value is -0.337.
As for RRIRIRPPRLPRPRPRPRFDPRP, the “shrunken log2 fold change” value was -0.282.
On to RRIRKRPPRLPRPRPRPLFTPRP, for which the “shrunken log2 fold change” value was determined as 0.331.
Turning to RRIRTRPPRLPRPRPRPAIMPRP, the “shrunken log2 fold change” value is -0.0824.
Take RRIRGRPPRLPRPRPRPDVYPRP: the “shrunken log2 fold change” value was -0.0497.
On to RRIRLRPPRLPRPRPRPPVTPRP, for which the “shrunken log2 fold change” value came out at 0.353.
Regarding RRIRFRPPRLPRPRPRPFSKPRP, the “shrunken log2 fold change” value came to 0.033.
The value for RRIRPRPPRLPRPRPRPQLKPRP was 0.202; that for RRIRTRPPRLPRPRPRPCMRPRP was -0.0225; that for RRIRIRPPRLPRPRPRPQSQPRP was -0.513.
Regarding RRIRVRPPRLPRPRPRPAKDPRP, the “shrunken log2 fold change” value was determined as 0.00226.
With RRIRTRPPRLPRPRPRPLVRPRP, the “shrunken log2 fold change” value came to 0.114.
The value for RRIRSRPPRLPRPRPRPNPMPRP was -0.111; that for RRIRIRPPRLPRPRPRPAWYPRP was 0.0724; that for RRIRFRPPRLPRPRPRPHTIPRP was -0.745.
On to RRIRDRPPRLPRPRPRPMSHPRP, for which the “shrunken log2 fold change” value is -0.046.
In the case of RRIRDRPPRLPRPRPRPISCPRP, the “shrunken log2 fold change” value was -0.0129.
The value for RRIRYRPPRLPRPRPRPYNRPRP was -0.0152.
As for RRIRYRPPRLPRPRPRPGSFPRP, the “shrunken log2 fold change” value is -0.0331.
As for RRIRCRPPRLPRPRPRPLSWPRP, the “shrunken log2 fold change” value came to 0.513.
With RRIRIRPPRLPRPRPRPTFEPRP, the “shrunken log2 fold change” value is 0.168.
For RRIRARPPRLPRPRPRPMVEPRP, the “shrunken log2 fold change” value worked out at 0.0234.
As for RRIRPRPPRLPRPRPRPLVGPRP, the “shrunken log2 fold change” value amounted to 0.408.
Turning to RRIRCRPPRLPRPRPRPNVLPRP, the “shrunken log2 fold change” value was -0.464.
Take RRIRMRPPRLPRPRPRPLDVPRP: the “shrunken log2 fold change” value is 0.287.
With RRIRYRPPRLPRPRPRPFAEPRP, the “shrunken log2 fold change” value was -0.509.
Take RRIRLRPPRLPRPRPRPSSMPRP: the “shrunken log2 fold change” value is -0.179.
On to RRIRSRPPRLPRPRPRPLTQPRP, for which the “shrunken log2 fold change” value worked out at 0.243.
Turning to RRIRGRPPRLPRPRPRPPALPRP, the “shrunken log2 fold change” value is 0.881.
Under RRIRSRPPRLPRPRPRPRISPRP stands 0.0353; under RRIRYRPPRLPRPRPRPPWSPRP, -0.372.
Turning to RRIRPRPPRLPRPRPRPEQDPRP, the “shrunken log2 fold change” value is 0.0894.
Consider RRIRPRPPRLPRPRPRPTYMPRP, for which the “shrunken log2 fold change” value is -0.0483.
RRIRSRPPRLPRPRPRPRDTPRP: the “shrunken log2 fold change” value was 0.0657.
Regarding RRIRQRPPRLPRPRPRPPYDPRP, the “shrunken log2 fold change” value was -0.152.
In the case of RRIRTRPPRLPRPRPRPEWFPRP, the “shrunken log2 fold change” value was 0.0821.
Under RRIRRRPPRLPRPRPRPMVWPRP stands 0.686.
Under RRIRYRPPRLPRPRPRPRFKPRP stands -0.302; under RRIRYRPPRLPRPRPRPGPTPRP, -0.0479.
In the case of RRIRRRPPRLPRPRPRPCLCPRP, the “shrunken log2 fold change” value is -0.00345.
As for RRIRHRPPRLPRPRPRPLNVPRP, the “shrunken log2 fold change” value was -0.588.
Under RRIRFRPPRLPRPRPRPDMHPRP stands 0.191.
Regarding RRIRDRPPRLPRPRPRPIQDPRP, the “shrunken log2 fold change” value was -0.0113.
On to RRIRGRPPRLPRPRPRPTYNPRP, for which the “shrunken log2 fold change” value is 0.0375.
RRIRNRPPRLPRPRPRPKKDPRP: the “shrunken log2 fold change” value stood at 0.0489.
Take RRIRNRPPRLPRPRPRPSCTPRP: the “shrunken log2 fold change” value is -0.34.
With RRIRERPPRLPRPRPRPYPLPRP, the “shrunken log2 fold change” value was -0.192.
Turning to RRIRCRPPRLPRPRPRPHVGPRP, the “shrunken log2 fold change” value is 0.0562.
Consider RRIRIRPPRLPRPRPRPQCNPRP, for which the “shrunken log2 fold change” value is -0.0824.
For the sequence RRIRDRPPRLPRPRPRPFGIPRP, the “shrunken log2 fold change” value was determined as 0.0183.
On to RRIRYRPPRLPRPRPRPPTIPRP, for which the “shrunken log2 fold change” value is -0.424.
For RRIRPRPPRLPRPRPRPFWAPRP, the “shrunken log2 fold change” value was found to be 0.0614.
RRIRHRPPRLPRPRPRPPWWPRP: the “shrunken log2 fold change” value was 0.18.
The value for RRIRWRPPRLPRPRPRPHRAPRP was -0.0058; that for RRIRGRPPRLPRPRPRPENEPRP was 0.686.
On to RRIRVRPPRLPRPRPRPWSCPRP, for which the “shrunken log2 fold change” value was -0.155.
As to RRIRHRPPRLPRPRPRPLEEPRP, the “shrunken log2 fold change” value stood at 0.136.
For RRIRVRPPRLPRPRPRPTPIPRP, the “shrunken log2 fold change” value stood at 0.186.
With RRIRCRPPRLPRPRPRPWHLPRP, the “shrunken log2 fold change” value was -0.221.
As for RRIRNRPPRLPRPRPRPSVCPRP, the “shrunken log2 fold change” value is -0.174.
On to RRIRERPPRLPRPRPRPRQMPRP, for which the “shrunken log2 fold change” value was -0.000582.
The value for RRIRNRPPRLPRPRPRPGGVPRP was 0.239.
On to RRIRWRPPRLPRPRPRPEWQPRP, for which the “shrunken log2 fold change” value is 0.0276.
In the case of RRIRQRPPRLPRPRPRPCDFPRP, the “shrunken log2 fold change” value was 0.0344.
Turning to RRIRLRPPRLPRPRPRPSMVPRP, the “shrunken log2 fold change” value is -0.665.
Regarding RRIRHRPPRLPRPRPRPKCKPRP, the “shrunken log2 fold change” value is -0.14.
The value for RRIRQRPPRLPRPRPRPPVSPRP was -0.203; that for RRIRMRPPRLPRPRPRPDYVPRP was -0.183; that for RRIRRRPPRLPRPRPRPAIAPRP was 0.468.
With RRIRDRPPRLPRPRPRPKTMPRP, the “shrunken log2 fold change” value is -0.0184.
Regarding RRIRARPPRLPRPRPRPASYPRP, the “shrunken log2 fold change” value was 0.187.
Turning to RRIRARPPRLPRPRPRPRRSPRP, the “shrunken log2 fold change” value came to 0.743.

Values taken from the supplement of paper PMC9112550, “Optimization of the antimicrobial peptide Bac7 by deep mutational scanning” (BMC Biology, 2022).
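Note: peptides expressed intracellularly from a pBAD plasmid library in pooled LB shake-flask culture, induced with 0.3% L-arabinose, DNA abundance read by NGS, three biological replicates, DESeq2 with apeglm shrinkage.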
